Test results published in patent publication US20240409645A1.
Substitutions are numbered along the chain they refer to.

B1: FJ1427_P035MP02E03 (VHH)
VHH: EVQLVESGGGSVQTGGSLRLSCVVSGSHFISDVMGWYRQVPGKQRELVADMADGGSVKYGDSVKGRFTILRDSVKNTVTLQMSSLNPEDTGVYYCKAGLWITGRHFDYWGQGTQVTVTS
B2: FJ1427 P035MP02H05 (VHH)
VHH: B1 VHH with V57A, F106S
B3: FJ1427_P035MP02D04 (VHH)
VHH: QVQLVESGGGLVQTGGSLRLSCAVSGSRFISDVMGWYRQVPGKQRELVADMADGGSAKYADSVKGRFSILRDSVKNTVYLQMSSLKPEDTGIYYCKAGLWIAGRHSDYWGQGTQVTVSS
B4: FJ1427_P035MP02F05 (VHH)
VHH: B3 VHH with Q1E
B5: FJ1427 P035MP02C05 (VHH)
VHH: B3 VHH
B6: FJ1427_P035MP02C07 (VHH)
VHH: QVQLVESGGGLVQAGGSLRLSCAASGRTFSINTMGWFRQAPGKEREFVAAISRSGDSTVYVDSVKGRFTISRDNAKNTVYLQMNTLKPEDTAVYYCATTVAVGWTTRWSTIDFDSWGQGTQVTVSS
B7: FJ1427_P035MP02F03 (VHH)
VHH: EVQLVESGGGLVQAGGSLRLSCAASGGTFSSYAMGWFRQAPGKEREFVAATTRGGGRTMYAVSTEGRFTCSRDNAKNTVYLLMNSLKPEDTAVYYCAAMTSYYSGTYYPDSSDFDIWGQGTQVTVSS
B8: FJ1427_P035MP02B04 (VHH)
VHH: B7 VHH with R19G, L82Q, E89K, V93I
B9: FJ1427 P035MP02H04 (VHH)
VHH: B7 VHH with E1Q, G16D, A24T, G27L, M34L, E44K, A75D, E89K
B10: FJ1427_P035MP02E04 (VHH)
VHH: B7 VHH with L82Q, E89K, V93I
B11: FJ1427_P035MP02A06 (VHH)
VHH: B7 VHH with E1Q, V5Q, A75D, E89K
B12: FJ1427 P035MP02B07 (VHH)
VHH: EVQLVESGGGLVEAGGSLRLSCAASGRAFNNFPMGWFRQAPGKEREFVAAITWISGSTLYADSVKGRFTISRDKSKNTVYLQMSGLKPEDTALYYCAAALKTITRGQHDYTYWGQGTQVTVSS
B13: FJ1427 P035MP02C08 (VHH)
VHH: EVQLVESGGGLVQAGGSLRLSCAASGSTFSRQPMYWFRQAPGKEREFVAAITWSGRGTLYADSVEGRFTISRDNAKNTVYLQMNSLRPDDTAAYYCAAGPYGDAAYRHGRIDSWGQGTQVTVSS
B14: FJ1427_P035MP02E05 (VHH)
VHH: EVQLVESGGGLVQIGGSLRLSCAASGRTFSSITMAYFRQVPGKEHEWVAGINFSGTRTFYADSVKGRFLISRDDAKSTMYLQMNSLKPEDTAVYYCAASPRGFYGPGNALYDYWGQGTQVTVSS
B15: FJ1427_P035MP02H08 (VHH)
VHH: EVQLVESGGGLVQAGDSLRISCAASGRIFSNYAMGWFRQAPGKETEFVAGITHLTSTTHYADSVKGRFTISRDNAKNTMHLQMNNLKPEDTALYYCAADRNIKITADWSYWGQGTQVTVAS
B16: FJ1427_P035MP02F08 (VHH)
VHH: QVQLVESGGGLVQAGGSLRLSCAASGSIFSLNTMGWFRQAPGKEREFVAAISRSGGSATYGDSVKGRFTISTNNAKTTVYLQMNSLKPDDTAVYSCAASAAVGWTTRWSTIDFDSWGQGTQVTVSS
B17: FJ1427_P035MP02G03 (VHH)
VHH: QVQLVESGGGLVQPGGSLGLSCAASGFTFSNYAMSWVRQAPGKGLEWVASITGFGRGTDYADSVKGRFTVSRDNAKNTLYLQMNSLKPEDTAVYYCAKYSSSTYYPPTPARGRDYRGQGTQVTVSS
B18: FJ1427 P035MP02D05 (VHH)
VHH: B17 VHH with G16E, A49S, F54A, V70I, S102G, A110V, R113T
B19: FJ1427 P035MP02C06 (VHH)
VHH: B17 VHH with V2L, G19E, A49S, V70I, K98R
B20: FJ1427_P035MP02B06 (VHH)
VHH: B17 VHH with G16E, A49S, F54A, V70I, S102G, A110V, R113T
B21: FJ1427_P035MP02C04 (VHH)
VHH: B17 VHH with G19E, A49S, V70I, A75D, K98R
B22: FJ1427_P035MP02A08 (VHH)
VHH: EVQLVESGGGLVQAGGSLRLSCTVSGDVFVRYTMAWFRQAPGKEREFVATVTDSGRTTEYVDSVKGRFTVSRDNAKNTVYLQMNNLKPEDTAVYYCAANTDYFRIRSLDANTWGQGTQVTVSS
B23: FJ1427 P035MP02D08 (VHH)
VHH: B22 VHH with T23V, A49T, T50S, V51I
B24: FJ1427_P035MP02E08 (VHH)
VHH: B22 VHH with T23V, T50V, R104Q, L108V, A110N, T112A
B25: FJ1427 P035MP02G08 (VHH)
VHH: B22 VHH with E1Q, T50S, D62H, K65R
B26: FJ1427_P035MP02F06 (VHH)
VHH: EVQLVESGGGLVQTGGSLRLSCAASGSRFISDFMGWYRQVPGKQRELVADMADGGSARYGDSVKGRFTILRESGNATAYLQMSSLKPEDTGVYYCKAGLWIAGRHFDYWGQGTQVTVSS
B27: FJ1427 P035MP02A04 (VHH)
VHH: EVQLVESGGGLVQTGGSLRLSCTASGSQFINDVMGWYRQVPGKQRELVADMDDTGSTKYADSVNGRFTILRDSVKNTAYLQMSNLKPEDTGVYYCKAGLWIKGRHSDYWGQGTQVTVSS
B28: FJ1427 P035MP02G05 (VHH)
VHH: B27 VHH with T23A, M34T, N64K
B29: FJ1427 P035MP02F04 (VHH)
VHH: B27 VHH with T23A, N64K, S106F
B30: FJ1427_P035MP02A05 (VHH)
VHH: B27 VHH with T23A, N64K
B31: FJ1427_P035MP02G04 (VHH)
VHH: B27 VHH with E1Q, T14A, T23A, N64K, S106F
B32: FJ1427_P035MP02D06 (VHH)
VHH: B27 VHH with T23A, N64K
B33: FJ1427_P035MP02B05 (VHH)
VHH: B27 VHH with T23A, N64K, S106F
B34: FJ1427_P035MP02D07 (VHH)
VHH: EVQLVESGGGLVQAGGSLRLSCAASGRSLSTTEMGWFRQAPGKEREFVAAITWSGRGTMYAESVEGRFAVSRENAKNTVYLQMNSLKPEDTAIYYCAAARRGRAAVRSEGGYDFWGQGTQVTVSS

molecular target: T1, mouse IL-2Rβ (mouse) (UniProt P16297); experiment: P.E. ELISA, coated protein
T1 sequence (looked up): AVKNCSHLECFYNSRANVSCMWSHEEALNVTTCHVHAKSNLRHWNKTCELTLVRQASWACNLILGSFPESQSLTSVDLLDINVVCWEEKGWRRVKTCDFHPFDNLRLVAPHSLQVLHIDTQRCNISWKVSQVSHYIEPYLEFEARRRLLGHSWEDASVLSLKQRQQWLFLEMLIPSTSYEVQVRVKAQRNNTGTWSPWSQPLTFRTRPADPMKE

Binder | P.E. binding ELISA OD [OD450 nm]
B1 | 0.049
B2 | 0.049
B3 | 0.048
B4 | 0.048
B5 | 0.047
B6 | 0.046
B7 | 0.048
B8 | 0.047
B9 | 0.05
B10 | 0.048
B11 | 0.048
B12 | 0.046
B13 | 0.047
B14 | 0.048
B15 | 0.049
B16 | 0.048
B17 | 0.049

Binder | P.E. binding ELISA OD [OD450 nm]
B18 | 0.049
B19 | 0.047
B20 | 0.047
B21 | 0.047
B22 | 0.069
B23 | 0.048
B24 | 0.058
B25 | 0.055
B26 | 0.047
B27 | 0.048
B28 | 0.048
B29 | 0.048
B30 | 0.047
B31 | 0.048
B32 | 0.047
B33 | 0.048
B34 | 0.046
